Results on six molecules are retold here after publication doi:10.1101/2024.10.14.618187, “Molecular basis of interchain disulfide-bond formation in BMP-9 and BMP-10” (bioRxiv, 2024).

The target of data set [1] is BMP-9 dimer (disulfide-linked BMP-9 growth factor homodimer) (human) (UniProt Q9UK05).
Data set [2] has as its target BMP-9 monomer (cysteinylated BMP-9 growth factor) (human) (UniProt Q9UK05).
Data set [3] concerns the molecule itself. In words: crystal structure; BMP-10 Crystal Chimera; 25% 1,2-propanediol, 100 mM phosphate pH 6.2, 10% glycerol.
In data set [4] the target is T1, Pro-(X)-BMP-10 R353K, O95393.
T1 chain: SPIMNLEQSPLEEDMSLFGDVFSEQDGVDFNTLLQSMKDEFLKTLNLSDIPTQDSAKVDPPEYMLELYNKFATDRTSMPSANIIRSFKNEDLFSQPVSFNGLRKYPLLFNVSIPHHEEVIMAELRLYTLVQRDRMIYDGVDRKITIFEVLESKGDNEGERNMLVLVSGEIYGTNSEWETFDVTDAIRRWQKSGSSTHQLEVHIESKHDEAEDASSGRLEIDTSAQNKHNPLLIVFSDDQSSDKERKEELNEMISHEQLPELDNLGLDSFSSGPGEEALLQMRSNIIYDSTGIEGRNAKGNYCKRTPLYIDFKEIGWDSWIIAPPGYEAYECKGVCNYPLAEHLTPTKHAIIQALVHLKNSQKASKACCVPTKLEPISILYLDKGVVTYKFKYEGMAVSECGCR
In words: SDS-PAGE densitometry after IMAC purification. The following applies: chain shown with the change.

A further data set has as its target BMP-10 monomer (human) (UniProt O95393).
In a further data set the target is BMP-10 dimer (human) (UniProt O95393).

On to “BMP-9 dimer (disulfide-linked BMP-9 growth factor homodimer) (from UniProt Q9UK05 320-429) (ligand)”, for which the EC50 of pSMAD1/5/9 (western blot) in serum-starved HUVECs, 45 minutes, dimers 0.001–1.62 ng/mL in data set [1] came to 3.3 pM. In data set [2], “BMP-9 monomer (cysteinylated BMP-9 growth factor) (from UniProt Q9UK05 320-429) (ligand)” came in with an EC50 of pSMAD1/5/9 (western blot) in serum-starved HUVECs, 45 minutes, monomers 0.01–54 ng/mL of 124 pM.

B1: BMP-10 Crystal Chimera (growth factor from Pro9-(X)-BMP-10 Crystal Chimera) (ligand, human)
chain: DDGNYCKRTPLYIDFKEIGWDSWIIAPPGYEAYECRGVCFFPLAEHLTPTKHAIIQTLVHLKNSQKASKACCVPTKLEPISILYLDKGVVTLKYKYEGMAVSECGCR
notes: human proBMP10 residues 320-424 with five residues replaced by BMP-9 crystal contacts; numbers count on the precursor; Expressed behind the BMP-9 prodomain (proBMP9 residues 23-315); also called chimeric BMP-10; source: expi293 (suspension HEK293), expressed as Pro9-(X)-BMP-10 Crystal Chimera; purified
For B1, the binding result in data set [3] is “binds”.

B2: Pro-(X)-BMP-10, O95393 R353K (protein)
chain: SPIMNLEQSPLEEDMSLFGDVFSEQDGVDFNTLLQSMKDEFLKTLNLSDIPTQDSAKVDPPEYMLELYNKFATDRTSMPSANIIRSFKNEDLFSQPVSFNGLRKYPLLFNVSIPHHEEVIMAELRLYTLVQRDRMIYDGVDRKITIFEVLESKGDNEGERNMLVLVSGEIYGTNSEWETFDVTDAIRRWQKSGSSTHQLEVHIESKHDEAEDASSGRLEIDTSAQNKHNPLLIVFSDDQSSDKERKEELNEMISHEQLPELDNLGLDSFSSGPGEEALLQMRSNIIYDSTGIEGRNAKGNYCKRTPLYIDFKEIGWDSWIIAPPGYEAYECKGVCNYPLAEHLTPTKHAIIQALVHLKNSQKASKACCVPTKLEPISILYLDKGVVTYKFKYEGMAVSECGCR
Regarding B2, the other: dimer over monomer ratio in data set [4] is 0.9.

B3: BMP-10 monomer (ligand)
chain: NAKGNYCKRTPLYIDFKEIGWDSWIIAPPGYEAYECRGVCNYPLAEHLTPTKHAIIQALVHLKNSQKASKACCVPTKLEPISILYLDKGVVTYKFKYEGMAVSECGCR
modifications: cysteinylated (+119 Da); the paper takes the site to be the interchain cysteine
B3 registered an EC50 of pSMAD1/5/9 (western blot) in serum-starved HUVECs, 45 minutes, monomers 0.01–54 ng/mL with BMP-10 monomer (human) of 164 pM.

B4: BMP-10 dimer (ligand)
chain: NAKGNYCKRTPLYIDFKEIGWDSWIIAPPGYEAYECRGVCNYPLAEHLTPTKHAIIQALVHLKNSQKASKACCVPTKLEPISILYLDKGVVTYKFKYEGMAVSECGCR
modifications: interchain disulfide
In turn, B4 gave an EC50 of pSMAD1/5/9 (western blot) in serum-starved HUVECs, 45 minutes, dimers 0.001–1.62 ng/mL in the data set with BMP-10 dimer (human) of 5.9 pM.
